{"source": "patent US20100260677A1", "about": "“METHODS AND SYSTEMS FOR TREATMENT AND/OR DIAGNOSIS” (Massachusetts Institute of Technology, priority 2009, published 2010)", "molecules": {"B1": {"name": "peptide substrate for the transglutaminase Factor XIII, G-N-Q-E-Q-V-S-P-L-T-L-L-K-X-C-(K-Fluorescein) (peptide)", "peptide": "GNQEQVSPLTLLK[Ahx]CK-Fluorescein", "modifications": "also: coupled through the exogenous Cys to nanoworm or liposome carrier"}, "B2": {"name": "fibrin-binding peptide Ac-d-d-d-G-Y-e-C-hyP-cY-G-L-C-Y-I-Q-K-Fluorescein (peptide)", "peptide": "Ac-[dD][dD][dD]GY[dE]C[Hyp][cY]GLCYIQK-Fluorescein", "modifications": "disulfide 7-12 (inferred); not fully specified; printed as Ac-d-d-d-G-Y-e-C-hyP-cY-G-L-C-Y-I-Q-K-Fluorescein; also: attached to nanoworm via the Lys with NHS-PEO5-NHS linker"}}, "key": {"MDA-MB-435 tumors [1]": {"tested_on": "MDA-MB-435 tumors", "test": "Small molecule vascular disrupting agents: induction of coagulation in tumors (fibrinogen/albumin tropism)", "type": "in vivo, mice", "details": "i.p. DMXAA 20 mg/kg or colchicine 1 mg/kg; 24 hours", "protocol": "Mice bearing MDA-MB-435 tumors were intravenously injected with a mixture of fibrinogen and albumin that had been labeled with unique near-infrared fluorophores (VT750 and VT680, respectively). Immediately after injection, mice were intraperitoneally injected with DMXAA (20 mg/kg) in 200 microliters of sodium bicarbonate buffer or vehicle. At 24 hours after injections, mice were sacrificed and organs removed for fluorescent quantification of protein tropism to tumors (* indicates p=0.014; n=6). […] Mice bearing bilateral MDA-MB-435 tumors were intravenously injected with a mixture of fibrinogen and albumin that had been labeled with unique near-infrared fluorophores (VT750 and VT680, respectively). […] At 24 hours after injections, mice were sacrificed and organs removed for fluorescent quantification of protein tropism to tumors."}, "MDA-MB-435 tumors [2]": {"tested_on": "MDA-MB-435 tumors", "test": "Nanoworm receiver homing to externally heated tumors", "type": "in vivo, mice", "details": "24 hours", "method": "(§1) Quantifying NW homing to tumors: Mixtures of NIR-fluorophore-labeled, targeted and control NWs (bearing VT750 and VT680 or VT680 and VT750, respectively) were co-adminstered intravenously in PBS (2 mg Fe/kg) to tumor-bearing nu/nu mice to provide an internal control reference for coagulation-specific NW homing. At 24 hours post-NW injection, mice were sacrificed and organs were analyzed for both NIR-fluorophores (LI-COR Odyssey Infrared Imaging System). For integrated nanoparticle system characterization, mice were additionally imaged under isofluorane anaesthetic before euthanization using a whole animal fluorescence reflectance imaging system (Xenogen, IVIS Imaging System) to visualize the specificity of NW homing to tumors. […] For initial characterization, levels of targeted and control NW homing were plotted by comparing the average NW fluorescence in heated tumors versus unheated tumors (n=4 mice at each temperature). For integrated network evaluation, levels were plotted by comparing the average targeted and untargeted NW fluorescence in irradiated tumors versus un-irradiated tumors (n=4 mice for all conditions).\nHaving observed that external heating of tumors produced localized coagulation, this response was utilized in an assay to assess the ability of receivers to target tumor coagulation prior to integrating them with signaling components. […]"}, "MDA-MB-435 tumors [3]": {"tested_on": "MDA-MB-435 tumors", "test": "Integrated PEG-NR signaling / FXIII-NW receiver communication, NIR fluorescence imaging", "type": "in vivo, mice", "details": "PEG-NRs 10 mg Au/kg, 72 h later NWs i.v. + 810 nm ~0.75 W/cm^2 20 min; imaging at 96 hours", "method": "as §1\nPEG-NRs (or saline) were intravenously-injected into mice bearing bilateral MDA-MB-435 tumors. […]"}, "ICAM-1": {"tested_on": "ICAM-1", "test": "Induction of ICAM-1 expression in HUVECs (immuno-staining)", "type": "cell-based, Human", "details": "10 ng/ml overnight", "method": "This example illustrates the induction of ICAM-1 expression in HUVECs. […] Human Umbilical Vein Endothelial Cells (HUVECs) were cultured on slides coated with gelatin in Medium 200 supplemented with LSGS (Cascade Biologics/Invitrogen). One day after plating, cells were treated with 10 ng/ml TNF-alpha or vehicle alone overnight. The next day cells were fixed and immuno-stained for ICAM-1 expression (antibody from Cell Signaling)."}, "MDA-MB-435 tumor": {"tested_on": "MDA-MB-435 tumor", "test": "Autonomous communication between tTF signaling components and FXIII-NW receivers", "type": "in vivo, mice", "details": "tTF-RGD+FXIII-NWs plus heparin 800 units/kg i.v. + 500 units/kg i.p.", "method": "For autonomously-communicating nanosystems, NIR-fluorophore-labeled peptide-bearing NWs (bearing VT750 fluorophores) were intravenously (2 mg Fe/kg) in PBS to unanaesthetized MDA-MB-435 tumor-bearing nu/nu mice alone or alongside various tTF signaling components (25 micrograms). At 24 hours post-NW injection, the mice were sacrificed and organs were analyzed for NIR receiver fluorescence (LI-COR Odyssey Infrared Imaging System). For intraoperative fluorescent tumor imaging, mice were anaesthesized and tumours were surgically exposed to reveal detailed tumor fluorescence (LI-COR). The levels of NW homing to tumors were plotted by comparing the average NW fluorescence in fully-excised tumours (n=4 mice at each condition). For whole animal organ distribution, tTF-RGD signaling components were administered intraperitoneally (25 micrograms) and FXIII-NWs were administered intravenously (2 mg Fe/kg) to unanaesthetized mice bearing an MDA-MB-435 tumor.\nNu/nu mice bearing a single MDA-MB-435 tumor were intravenously injected with communicating (tTF-RGD+FXIII-NWs) or control (tTF-RGD+control-NWs) systems, FXIII-NWs alone, or NWs targeted by the peptide used to direct signaling component tumor homing (1 mg/kg tTF-RGD). At 24 hours post-injection, tumors were surgically exposed for fluorescent intraoperative imaging of NW homing. […]"}, "[4]": {"molecular_target": "T1, coagulation transglutaminase Factor XIII (mouse, UniProt Q8BH61 39-732)", "T1 sequence (looked up)": "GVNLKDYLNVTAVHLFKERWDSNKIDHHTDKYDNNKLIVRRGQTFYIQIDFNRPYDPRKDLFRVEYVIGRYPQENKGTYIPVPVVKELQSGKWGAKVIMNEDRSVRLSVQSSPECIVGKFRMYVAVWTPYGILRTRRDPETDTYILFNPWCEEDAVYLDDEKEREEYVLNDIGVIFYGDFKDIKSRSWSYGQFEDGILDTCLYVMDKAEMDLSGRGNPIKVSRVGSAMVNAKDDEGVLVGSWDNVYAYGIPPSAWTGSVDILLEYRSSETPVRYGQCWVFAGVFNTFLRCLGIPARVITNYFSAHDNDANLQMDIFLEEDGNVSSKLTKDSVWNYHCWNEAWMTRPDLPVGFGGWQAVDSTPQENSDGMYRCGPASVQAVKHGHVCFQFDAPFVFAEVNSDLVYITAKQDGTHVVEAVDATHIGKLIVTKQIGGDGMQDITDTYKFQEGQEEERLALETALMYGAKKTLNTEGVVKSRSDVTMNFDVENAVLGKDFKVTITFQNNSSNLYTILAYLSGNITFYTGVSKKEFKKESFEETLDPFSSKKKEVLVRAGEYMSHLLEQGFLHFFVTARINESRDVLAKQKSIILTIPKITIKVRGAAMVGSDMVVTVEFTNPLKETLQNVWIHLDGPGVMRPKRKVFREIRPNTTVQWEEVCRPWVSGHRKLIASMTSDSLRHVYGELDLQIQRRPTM", "test": "cell-based or functional assay"}, "[5]": {"molecular_target": "fibrin (polymerized fibrin deposited in heated tumors of mice) (mouse, UniProt E9PV24 37-789; Q8K0E8 35-481; Q8VCM7 26-436, limits assumed)", "sequence (E9PV24 37-789 limits assumed, chain 1 of 3)": "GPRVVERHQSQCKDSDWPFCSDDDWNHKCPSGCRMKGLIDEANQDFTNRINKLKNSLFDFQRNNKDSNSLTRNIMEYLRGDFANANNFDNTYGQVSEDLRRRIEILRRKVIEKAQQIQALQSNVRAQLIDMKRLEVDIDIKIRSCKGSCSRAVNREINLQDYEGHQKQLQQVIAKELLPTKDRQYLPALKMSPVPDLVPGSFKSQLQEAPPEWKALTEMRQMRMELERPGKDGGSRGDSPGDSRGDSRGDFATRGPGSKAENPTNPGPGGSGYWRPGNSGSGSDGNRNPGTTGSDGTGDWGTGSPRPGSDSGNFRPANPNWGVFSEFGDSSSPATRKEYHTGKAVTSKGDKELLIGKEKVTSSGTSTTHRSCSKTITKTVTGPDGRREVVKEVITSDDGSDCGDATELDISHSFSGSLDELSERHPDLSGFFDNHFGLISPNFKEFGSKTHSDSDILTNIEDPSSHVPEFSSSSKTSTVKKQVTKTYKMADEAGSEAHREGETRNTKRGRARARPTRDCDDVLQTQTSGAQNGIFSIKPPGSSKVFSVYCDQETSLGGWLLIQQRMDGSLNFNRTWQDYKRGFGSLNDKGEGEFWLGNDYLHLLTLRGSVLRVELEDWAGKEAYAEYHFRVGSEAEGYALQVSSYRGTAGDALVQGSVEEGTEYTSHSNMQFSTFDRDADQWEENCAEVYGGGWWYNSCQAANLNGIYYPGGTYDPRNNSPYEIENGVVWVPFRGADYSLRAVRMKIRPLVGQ", "sequence (Q8K0E8 35-481 limits assumed, chain 2 of 3)": "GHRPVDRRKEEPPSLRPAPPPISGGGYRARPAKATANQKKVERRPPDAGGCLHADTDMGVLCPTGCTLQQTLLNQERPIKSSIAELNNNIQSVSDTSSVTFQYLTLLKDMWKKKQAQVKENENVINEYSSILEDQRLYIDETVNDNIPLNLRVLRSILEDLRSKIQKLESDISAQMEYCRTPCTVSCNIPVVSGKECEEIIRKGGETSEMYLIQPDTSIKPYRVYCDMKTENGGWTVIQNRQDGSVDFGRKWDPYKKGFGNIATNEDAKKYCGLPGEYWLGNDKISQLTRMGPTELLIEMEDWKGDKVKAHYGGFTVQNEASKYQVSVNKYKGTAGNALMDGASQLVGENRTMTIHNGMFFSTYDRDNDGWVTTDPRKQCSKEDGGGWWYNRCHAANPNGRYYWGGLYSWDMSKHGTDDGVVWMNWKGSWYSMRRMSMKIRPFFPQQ", "sequence (Q8VCM7 26-436 limits assumed, chain 3 of 3)": "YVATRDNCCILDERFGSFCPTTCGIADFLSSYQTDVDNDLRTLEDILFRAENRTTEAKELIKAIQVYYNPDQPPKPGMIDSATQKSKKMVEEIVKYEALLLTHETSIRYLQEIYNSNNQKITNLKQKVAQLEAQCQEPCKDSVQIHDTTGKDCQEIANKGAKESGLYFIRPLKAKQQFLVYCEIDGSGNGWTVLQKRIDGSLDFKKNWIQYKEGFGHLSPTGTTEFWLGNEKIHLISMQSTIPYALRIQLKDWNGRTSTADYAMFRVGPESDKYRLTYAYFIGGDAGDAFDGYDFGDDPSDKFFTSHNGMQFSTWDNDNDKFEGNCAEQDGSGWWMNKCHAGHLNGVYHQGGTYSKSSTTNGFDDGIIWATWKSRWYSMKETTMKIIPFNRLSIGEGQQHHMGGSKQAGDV", "test": "cell-based or functional assay"}}, "note": "Positions of bridges follow the written chain, without caps; N, C: chain ends. Non-standard residues stand in square brackets, D forms with d. No end group written: not given here. Hyp = O=C(O)[C@@H]1C[C@@H](O)CN1; cY = chlorotyrosine; Ahx = NCCCCCC(=O)O"}
{"molecule": "Cc1ccc2c(=O)c3cccc(CC(=O)O)c3oc2c1C", "note": "[DMXAA, 5,6-dimethylxanthenone-4-acetic acid]", "values": [{"measurement": "induction of coagulation in tumors", "setting": "MDA-MB-435 tumors [1]", "value": "specifically induced coagulation in tumors"}]}
{"molecule": "FXIII-NWs: magnetofluorescent iron oxide nanoworms derivatized with a peptide substrate for coagulation transglutaminase Factor XIII (SEQ ID NO: 2) (GNQEQVSPLTLLK[Ahx]CK-Fluorescein; not fully specified (residue 15))", "values": [{"measurement": "histopathological distribution in heated tumors compared with controls", "setting": "MDA-MB-435 tumors [2]; heated tumors", "value": "marked extravasation and interstitial spreading"}, {"measurement": "increase in tumor targeting, heated compared to unheated tumors", "setting": "MDA-MB-435 tumors [2]; one tumor heated at 45° C. in water bath 20 min", "value": "nearly an order of magnitude"}, {"measurement": "increase in accumulation in NR-heated tumors above unirradiated contralateral tumors and tumors on saline-injected mice", "setting": "MDA-MB-435 tumors [3]", "value": "over an order of magnitude"}]}
{"molecule": "TNF-alpha", "values": [{"measurement": "ICAM-1 expression on the cell surface", "setting": "ICAM-1", "value": "upregulation of ICAM-1 on the cell surface"}]}
{"molecule": "heparin", "values": [{"measurement": "amplified vascular targeting when coagulation inhibitor administered alongside the integrated system", "setting": "MDA-MB-435 tumor", "value": "absent"}]}
{"molecule": "B1", "values": [{"measurement": "accumulation of FXIII-substrate receiving NWs in tumors heated to 45 C against unheated tumors (in vivo, NIR fluorescence at 24 hours)", "setting": "[4]", "value": "~10", "unit": "fold"}, {"measurement": "accumulation of FXIII-targeted NWs in nanorod-heated tumors against unirradiated contralateral tumors and tumors on saline-injected mice (in vivo, whole-animal fluorescence)", "setting": "[4]", "value": "> 10", "unit": "fold"}, {"measurement": "doxorubicin accumulation in tumors heated to 45 C against unheated controls, FXIII-substrate liposomes (in vivo)", "setting": "[4]", "value": "> 40", "unit": "fold"}, {"measurement": "doxorubicin accumulation in tumors, NR signaling components plus FXIII-LP receivers against the LPs alone (in vivo)", "setting": "[4]", "value": "> 40", "unit": "fold"}]}
{"molecule": "B2", "values": [{"measurement": "targeting of fibrin-binding receiving NWs to heated tumors against unheated tumors (in vivo, NIR fluorescence)", "setting": "[5]", "value": "~10", "unit": "fold"}]}
